We go through 14 molecules from US20210206851A1 (MacroGenics, published 2021).

T1: soluble human LAG-3-Fc fusion protein (shLAG-3-Fc) (human, UniProt P18627 23-450, biotinylated in the Daudi cell assay)
T1 construct: also called biotinylated-soluble human LAG-3-Fc fusion protein; not shown: Fc portion; detected with goat anti-human Fc gamma
T1 sequence: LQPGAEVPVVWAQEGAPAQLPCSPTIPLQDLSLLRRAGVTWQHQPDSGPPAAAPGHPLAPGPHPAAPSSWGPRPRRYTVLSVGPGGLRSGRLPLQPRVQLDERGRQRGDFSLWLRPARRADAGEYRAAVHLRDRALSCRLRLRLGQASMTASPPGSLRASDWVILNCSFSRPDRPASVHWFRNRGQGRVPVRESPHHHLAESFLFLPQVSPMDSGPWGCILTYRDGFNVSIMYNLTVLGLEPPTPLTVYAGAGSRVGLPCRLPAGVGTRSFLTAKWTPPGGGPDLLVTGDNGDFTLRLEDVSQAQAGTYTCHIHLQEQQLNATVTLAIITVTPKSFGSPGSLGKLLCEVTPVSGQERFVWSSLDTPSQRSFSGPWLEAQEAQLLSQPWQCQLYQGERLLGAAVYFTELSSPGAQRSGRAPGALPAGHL

T2: His-tagged soluble human LAG-3 (shLAG-3-His) (human, UniProt P18627 23-450)
T2 construct: also called soluble human LAG-3-His fusion protein; extracellular domain of human LAG-3 fused to a His tag; not shown: His tag
T2 sequence: T1 sequence

T3: soluble human LAG-3 fusion protein (extracellular domain of human LAG-3 fused to murine IgG2a) (human; murine, UniProt P18627 23-450)
T3 construct: also called human LAG-3-murine IgG2a fusion protein; not shown: murine IgG2a
T3 sequence: T1 sequence

B1: LAG-3 mAb A (antibody, V domains shown)
VH: QVQLQQWGAGLLKPSETLSLTCAVYGGSFSDYYWNWIRQPPGKGLEWIGEINHNGNTNSNPSLKSRVTLSLDTSKNQFSLKLRSVTAADTAVYYCAFGYSDYEYNWFDPWGQGTLVTVSS
VL: EIVLTQSPATLSLSPGERATLSCRASQSISSYLAWYQQKPGQAPRLLIYDASNRATGIPARFSGSGSGTDFTLTISSLEPEDFAVYYCQQRSNWPLTFGQGTNLEIK
notes: also called 25F7; BMS-986016
B2: LAG-3 mAb 1 (antibody, V domains shown)
VH: QIQLVQSGPELKKPGETVKISCKASGYTFRNYGMNWVKQAPGKVLKWMGWINTYTGESTYADDFEGRFAFSLGTSASTAYLQINILKNEDTATYFCARESLYDYYSMDYWGQGTSVTVSS
VL: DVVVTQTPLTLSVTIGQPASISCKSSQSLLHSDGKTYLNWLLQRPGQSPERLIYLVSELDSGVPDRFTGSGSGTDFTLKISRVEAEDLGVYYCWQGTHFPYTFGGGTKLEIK
notes: Murine monoclonal antibody; also called murine anti-human antibody LAG-3 mAb 1
B3: LAG-3 mAb 3 (antibody, V domains shown)
VH: EVRLQQSGPELVKPGASVKISCKASGYTFTDYNIHWVRQSHGQSLEWIGYIYPYNGDTGYNQKFKTKATLTVDNSSNTAYMELRSLASEDSAVYYCTRWSRNYFGPWFAYWGQGTLVTVSA
VL: DIVLTQSPTSLAVSLGQRATISCKASQSVDYDGDSYMNWYQQKPGQPPKLLIYAASNLESGIPARFSGSGSGTDFTLNIHPVEEEDAATYYCQQSSEDPLTFGAGTKLELK
notes: Murine monoclonal antibody
B4: LAG-3 mAb 2 (antibody, V domains shown)
VH: EVQLQQSGPELVKPGASVKISCKTSGYTFTDYNIHWLRQSHGESLEWIGYIYPYSGDIGYNQKFKNRATLTVDNSSSTAYMDLRSLTSEDSAVFYCARWHRNYFGPWFAYWGQGTPVTVSA
VL: B3 VL with T9A, D34E, A54V, A55V
notes: Murine monoclonal antibody
B5: LAG-3 mAb 4 (antibody, V domains shown)
VH: EVQLHQSGPELVKPGASVKISCKTSGYTFTDYNIHWVKQSHGKSLEWIGYIYPYNGDAGYNQNFKTKATLTVDNSSSTAYMELRSLTSEDSAVYYCARWNMNYFGPWFAYWGQGTLVTVSA
VL: B3 VL with T9A, D34V, S35T, M37I, Y53F, S96N
notes: Murine monoclonal antibody
B6: LAG-3 mAb 5 (antibody, V domains shown)
VH: B4 VH with T24A, L37V, R38K, H41P, E43K, I58F, N66S, R67K, P116L
VL: B3 VL with T9A, D34E, A54V, A55V
notes: Murine monoclonal antibody
B7: hLAG-3 mAb 1 (1.4) (constant region not stated) (antibody, V domains shown)
VH: QVQLVQSGAEVKKPGASVKVSCKASGYTFTNYGMNWVRQAPGQGLEWMGWINTYTGESTYADDFEGRFVFSMDTSASTAYLQISSLKAEDTAVYYCARESLYDYYSMDYWGQGTTVTVSS
VL: DIVMTQTPLSLSVTPGQPASISCKSSQSLLHSDAKTYLNWLLQKPGQPPERLIYLVSELDSGVPDRFSGSGSGTDFTLKISRVEAEDVGVYYCWQGTHFPYTFGGGTKVEIK
notes: also called hLAG-3 1 (1.4); humanized hLAG-3 1 (1.4)
B8: hLAG-3 mAb 6 (1.1) (antibody, V domains shown)
VH: QVQLVQSGAEVKKPGASVKVSCKASGYTFTDYNMDWVRQAPGQGLEWMGDINPDNGVTIYNQKFEGRVTMTTDTSTSTAYMELRSLRSDDTAVYYCAREADYFYFDYWGQGTTLTVSS
VL: DIQMTQSPSSLSASVGDRVTITCRASQDVSSVVAWYQQKPGKAPKLLIYSASYRYTGVPSRFSGSGSGTDFTLTISSLQPEDFATYYCQQHYSTPWTFGGGTKLEIK
notes: also called hLAG-3 6 (1.1); humanized LAG-3 mAb 6
B9: hLAG-3 mAb 1 (1.4), human IgG1 (AA) (antibody)
heavy: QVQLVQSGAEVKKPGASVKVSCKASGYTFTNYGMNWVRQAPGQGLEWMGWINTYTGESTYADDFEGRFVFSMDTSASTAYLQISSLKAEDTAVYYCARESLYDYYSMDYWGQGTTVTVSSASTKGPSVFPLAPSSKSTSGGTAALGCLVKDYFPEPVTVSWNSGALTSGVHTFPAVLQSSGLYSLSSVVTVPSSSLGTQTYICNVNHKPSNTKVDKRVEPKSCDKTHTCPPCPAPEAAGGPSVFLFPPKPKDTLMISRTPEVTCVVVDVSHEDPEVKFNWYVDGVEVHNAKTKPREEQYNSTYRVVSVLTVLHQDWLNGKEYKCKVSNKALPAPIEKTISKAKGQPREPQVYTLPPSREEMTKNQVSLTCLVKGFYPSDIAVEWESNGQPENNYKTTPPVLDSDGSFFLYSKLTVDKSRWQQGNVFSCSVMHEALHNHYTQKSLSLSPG
light: DIVMTQTPLSLSVTPGQPASISCKSSQSLLHSDAKTYLNWLLQKPGQPPERLIYLVSELDSGVPDRFSGSGSGTDFTLKISRVEAEDVGVYYCWQGTHFPYTFGGGTKVEIKRTVAAPSVFIFPPSDEQLKSGTASVVCLLNNFYPREAKVQWKVDNALQSGNSQESVTEQDSKDSTYSLSSTLTLSKADYEKHKVYACEVTHQGLSSPVTKSFNRGEC
notes: also called hLAG-3 mAb 1 (1.4)^c, e
B10: hLAG-3 mAb 1 (1.4), IgG4 (S228P) (antibody)
heavy: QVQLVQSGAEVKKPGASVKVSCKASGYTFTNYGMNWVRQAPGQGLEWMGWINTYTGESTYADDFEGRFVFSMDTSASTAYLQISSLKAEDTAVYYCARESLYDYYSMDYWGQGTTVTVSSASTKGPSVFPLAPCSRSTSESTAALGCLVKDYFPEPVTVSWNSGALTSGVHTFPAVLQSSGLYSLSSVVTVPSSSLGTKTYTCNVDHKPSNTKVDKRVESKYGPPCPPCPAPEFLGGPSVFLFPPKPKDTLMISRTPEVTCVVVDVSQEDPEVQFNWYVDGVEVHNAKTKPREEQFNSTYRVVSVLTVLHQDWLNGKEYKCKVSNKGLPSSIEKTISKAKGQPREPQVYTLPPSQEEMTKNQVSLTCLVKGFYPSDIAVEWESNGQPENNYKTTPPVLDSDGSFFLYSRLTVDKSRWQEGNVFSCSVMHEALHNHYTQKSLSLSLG
light: B9 light
notes: also called hLAG-3 mAb 1 (1.4)^c, f
B11: LAG-3 mAb 6 (antibody, V domains shown)
VH: EVLLQQSGPELVKPGASVKIPCKASGYTFTDYNMDWVKQSHGESLEWIGDINPDNGVTIYNQKFEGKATLTVDKSSSTAYMELRSLTSEDTAVYYCAREADYFYFDYWGQGTTLTVSS
VL: DIVMTQSHRFMSTSVGDRVSITCKASQDVSSVVAWYQQKPGQSPKLLIFSASYRYTGVPDRFTGSGSGTDFTFTISSVQAADLAVYYCQQHYSTPWTFGGGTKLEIK
notes: Murine monoclonal antibody
B12: hLAG-3 mAb 1 (1.2), human IgG1 (AA) (antibody, V domains shown)
VH: B7 VH
VL: DIVMTQTPLSLSVTPGQPASISCKSSQSLLHSDGKTYLNWLLQRPGQSPERLIYLVSELDSGVPDRFSGSGSGTDFTLKISRVEAEDVGVYYCWQGTHFPYTFGGGTKVEIKR
notes: also called hLAG-3 1 (1.2)
B13: hLAG-3 mAb 1 (2.2), human IgG1 (AA) (antibody, V domains shown)
VH: B7 VH with Y95F
VL: B12 VL
notes: also called hLAG-3 1 (2.2)
B14: hLAG-3 mAb 1 (1.1), human IgG1 (AA) (antibody, V domains shown)
VH: B7 VH
VL: B12 VL with R44K
notes: also called hLAG-3 1 (1.1)

Substitutions are numbered along the chain they refer to. Names may count otherwise. Bounds are passed on as bounds.

The target in the first experiment is T1, soluble human LAG-3-Fc fusion protein …. As to the kind of experiment: flow cytometry, blocking of biotinylated soluble human LAG-3-Fc binding to MHC class II on Daudi cells. In general terms: Flow cytometry measures light scatter and fluorescence of single cells or particles in a stream.
Regarding B1, the “IC50 (read off the curve)” value was approximately 3 ng/mL.

Regarding B2, the “IC50 (read off the curve)” value was approximately 3 ng/mL.

Take B3: the “IC50 (read off the curve)” value was approximately 3 ng/mL.

For the molecule B4, the “IC50 (read off the curve)” value was approximately 3 ng/mL.

For the molecule B5, the “IC50 (read off the curve)” value was approximately 3 ng/mL.

Take B6: the “IC50 (read off the curve)” value was approximately 3 ng/mL.

For another experiment, the target named is T2, His-tagged soluble human LAG-3 …. As to the kind of experiment: ELISA, blocking; antibody mixed with soluble human LAG-3-His (0.2 ug/ml), binding to immobilized MHC class II.
Consider B1, for which the “IC50 (read off the curve)” value is approximately 0.2 nM.

For the molecule B7, the “IC50 (read off the curve)” value was approximately 0.3 nM.

As for B8, the “IC50 (read off the curve)” value was approximately 0.3 nM.

For a further experiment, the target named is T3, soluble human LAG-3 fusion protein …. As to the kind of experiment: SPR (Biacore); human LAG-3 ECD-murine IgG2a fusion captured on Fab2 goat-anti-mouse Fc, antibody in solution. Background: In SPR one partner is held on a chip, and binding of the other changes the refractive index at the surface.
In turn, B7 came in with a Kd of less than 0.29 nM.

Take B8: the dissociation constant Kd is less than 0.1 nM.

A further experiment deals with T2, His-tagged soluble human LAG-3 …. As to the kind of experiment: SPR (Biacore); antibody captured on immobilized Protein G, shLAG-3-His in solution.
Molecule B2 gave a dissociation constant (Kd) of 0.01 nM.

The target in a further experiment is T1, soluble human LAG-3-Fc fusion protein …. Kind of experiment: ELISA, blocking; antibody mixed with soluble human LAG-3-Fc (5 ug/mL), binding to immobilized MHC class II. (In an ELISA, binding on a coated surface is turned into a signal by an enzyme label.)
With B2, the “IC50 (read off the curve)” value is approximately 20 nM.

In the case of B3, the “IC50 (read off the curve)” value was approximately 30 nM.

Consider B6, for which the “IC50 (read off the curve)” value is approximately 30 nM.

A further experiment deals with T2, His-tagged soluble human LAG-3 …. Kind of experiment: SPR (Biacore); antibody captured on immobilized Fab2 goat anti-human Fc, shLAG-3-His in solution.
As for B9, the Kd came out at 0.04 nM.

For B10, the Kd came to 0.05 nM.

In another experiment the target is T1, soluble human LAG-3-Fc fusion protein …. As to the kind of experiment: flow cytometry, blocking of biotinylated soluble human LAG-3-Fc binding to MHC class II on Daudi cells. The source holds these as a separate data set.
On to B1, for which the “IC50 (read off the curve)” value was approximately 100 ng/mL.

Regarding B2, the “IC50 (read off the curve)” value is approximately 100 ng/mL.

Take B11: the “IC50 (read off the curve)” value was approximately 200 ng/mL.

Another experiment deals with T2, His-tagged soluble human LAG-3 …. Kind of experiment: SPR (Biacore); antibody captured on immobilized Fab2 goat-anti-mouse Fc, shLAG-3-His in solution.
In turn, B2 displayed a Kd of 0.013 nM.

The molecule B3 registered a Kd of 4.4 nM.

In turn, B4 registered a Kd of 1.9 nM.

On to B5, for which binding was put at a Kd of 0.8 nM.

In the case of B6, the affinity, expressed as Kd, was 0.9 nM.

In the case of B11, the affinity, expressed as Kd, was 0.02 nM.

Another experiment has the same target. As to the kind of experiment: SPR (Biacore); antibody captured on immobilized Protein A, shLAG-3-His in solution.
For the molecule B12, binding was characterised by a dissociation constant (Kd) of 0.01 nM.

In turn, B13 registered a Kd of 0.3 nM.

Molecule B14 gave a dissociation constant Kd of 0.04 nM.

In another experiment the target is T4, soluble cynomolgus monkey LAG-3 fusion protein (extracellular domain of cynomolgus monkey LAG-3 fused to … (cynomolgus monkey; murine).
T4 construct: extracellular domain; also called cynomolgus LAG-3-murine IgG2a fusion protein
As to the kind of experiment: SPR (Biacore); cynomolgus LAG-3 ECD-murine IgG2a fusion captured on Fab2 goat-anti-mouse Fc, antibody in solution.
With B7, the Kd is less than 0.53 nM.

With B8, the dissociation constant (Kd) was determined as 3.7 nM.

Broadly, the Kd is the equilibrium constant for the complex coming apart.
